For the data set the following is noted: whole UniProt chain shown.
[1] abbreviates: Bos taurus, pH 5, Thermal, CD, Tris-acetate 0.01 M, reversible: yes.
The mark [2] stands for this setting: Bos taurus, pH 8.4, Thermal, CD, Tris-acetate 0.01 M, reversible: no.
Where [3] appears, read: Bos taurus, pH 5.3, 5 °C, GdnHCl, CD, Sodium acetate 0.02 M, reversible: yes.
[4] abbreviates: Bacillus subtilis (strain 168), pH 6, 27 °C, Thermal, CD, sodium phosphate 50 mM, reversible: yes.
The mark [5] stands for this setting: Bacillus licheniformis (strain ATCC 14580 / DSM 13 / JCM 2505 / CCUG 7422 / NBRC 12200 / NCIMB 9375 / NCTC 10341 / NRRL NRS-1264 / Gibson 46…, pH 7, Thermal, CD, Hepes 10 mM, reversible: Yes.
The mark [6] stands for this setting: Bos taurus, pH 2, Thermal, CD, KCl-HCl 0.1 M, reversible: yes.
[7] abbreviates: Bos taurus, pH 2, Thermal, CD, Sodium phosphate 0.2 M, reversible: yes.
Setting [8] is: Bos taurus, pH 2, Thermal, DSC, KCl-HCl 0.1 M, reversible: yes.
[9] abbreviates: Bos taurus, pH 6.2, 25 °C, 2-Propanol, CD, Piperazine Unknown, NaCl 30 mM, transition: 2, reversible: Yes.

B1: Serine protease 1 wild type, P00760 (protein)
chain: MKTFIFLALLGAAVAFPVDDDDKIVGGYTCGANTVPYQVSLNSGYHFCGGSLINSQWVVSAAHCYKSGIQVRLGEDNINVVEGNEQFISASKSIVHPSYNSNTLNNDIMLIKLKSAASLNSRVASISLPTSCASAGTQCLISGWGNTKSSGTSYPDVLKCLKAPILSDSSCKSAYPGQITSNMFCAGYLEGGKDSCQGDSGGPVVCSGKLQGIVSWGSGCAQKNKPGVYTKVCNYVSWIKQTIASN
On to B1, for which the unfolding free energy (Bos taurus, pH 5.8, 25 °C, GdnHCl, Fluorescence, MES 0.1 M) is 10.9 kcal/mol.

B2: Seminal ribonuclease wild type, P00669 (protein)
chain: MALKSLVVLPLLVLVLLLVRVQPSLGKESAAAKFERQHMDSGNSPSSSSNYCNLMMCCRKMTQGKCKPVNTFVHESLADVKAVCSQKKVTCKNGQTNCYQSKSTMRITDCRETGSSKYPNCAYKTTQVEKHIIVACGGKPSVPVHFDASV
Broadly, the Tm is the temperature at which the thermal transition is half complete. On to B2, for which, under setting [1], the Tm is 61.6 °C and the “unfolding enthalpy (van 't Hoff)” value was found to be 151 kcal/mol. In addition, under setting [2], the midpoint of thermal melting (Tm) came out at 65.2 °C and the “unfolding enthalpy (van 't Hoff)” value was 199 kcal/mol.

B3: Acyl-CoA-binding protein wild type, P07107 (protein)
chain: MSQAEFDKAAEEVKHLKTKPADEEMLFIYSHYKQATVGDINTERPGMLDFKGKAKWDAWNELKGTSKEDAMKAYIDKVEELKKKYGI
Turning to B3, under setting [3], the denaturant m value was 2.7 kcal/mol/M, the “denaturant midpoint (higher = more stable)” value is 2.36 M and the unfolding free energy was found to be 6.1 kcal/mol.

B4: FMN-dependent NADPH-azoreductase wild type, O07529 (protein)
chain: MNMLVINGTPRKHGRTRIAASYIAALYHTDLIDLSEFVLPVFNGEAEQSELLKVQELKQRVTKADAIVLLSPEYHSGMSGALKNALDFLSSEQFKYKPVALLAVAGGGKGGINALNNMRTVMRGVYANVIPKQLVLDPVHIDVENATVAENIKESIKELVEELSMFAKAGNPGV
On to B4, for which the Tm (Bacillus subtilis (strain 168), pH 7.5, Thermal, CD, Tris-HCl 100 mM, reversible: No) amounted to 86.5 °C.

B5: 3-isopropylmalate dehydrogenase wild type, P05645 (protein)
chain: MKKRIALLPGDGIGPEVLESATDVLKSVAERFNHEFEFEYGLIGGAAIDEHHNPLPEETVAACKNADAILLGAVGGPKWDQNPSELRPEKGLLSIRKQLDLFANLRPVKVFESLSDASPLKKEYIDNVDFVIVRELTGGLYFGQPSKRYVNTEGEQEAVDTLFYKRTEIERVIREGFKMAAARKGKVTSVDKANVLESSRLWREVAEDVAQEFPDVKLEHMLVDNAAMQLIYAPNQFDVVVTENMFGDILSDEASMLTGSLGMLPSASLSSSGLHLFEPVHGSAPDIAGKGMANPFAAILSAAMLLRTSFGLEEEAKAVEDAVNKVLASGKRTRDLARSEEFSSTQAITEEVKAAIMSENTISNV
Regarding B5, for the setting “Bacillus subtilis (strain 168), pH 7.6, Thermal, CD, Potassium phosphate 20 mM, reversible: yes”, the Tm came to 56 °C.

B6: Chemotaxis protein CheY wild type, P24072 (protein)
chain: MAHRILIVDDAAFMRMMIKDILVKNGFEVVAEAENGAQAVEKYKEHSPDLVTMDITMPEMDGITALKEIKQIDAQARIIMCSAMGQQSMVIDAIQAGAKDFIVKPFQADRVLEAINKTLN
In the case of B6, under setting [4], the “heat capacity change of unfolding” value was found to be 2.34 kcal/mol/K and the unfolding free energy worked out at 3.14 kcal/mol. Further, the Tm (Bacillus subtilis (strain 168), pH 6, Thermal, CD, sodium phosphate 50 mM, reversible: yes) is 54.9 °C.

B7: Protein GrpE wild type, Q65H53 (protein)
chain: MAEEKQNEELNEQEELNETEAETAEAEQTAAEADAPAEETQTEMLEKQLKELQERLEEKENKLLRVQADFENYKRRARLDLEAAEKYRSQRIISDLLPALDNFERALQIDPDNEQTKSLLQGMEMVHRQILEALKNEGVEQIPSVGEQFDPNMHQAVMQVEDEAYESNAVVEELQKGYKLKDRVIRPSMVKVNQ
Consider B7, for which, under setting [5], the Tm turned out to be 52 °C and the “unfolding enthalpy (van 't Hoff)” value turned out to be 99.9 kcal/mol.

B8: Beta-lactoglobulin wild type, P02754 (protein)
chain: MKCLLLALALTCGAQALIVTQTMKGLDIQKVAGTWYSLAMAASDISLLDAQSAPLRVYVEELKPTPEGDLEILLQKWENGECAQKKIIAEKTKIPAVFKIDALNENKVLVLDTDYKKYLLFCMENSAEPEQSLACQCLVRTPEVDDEALEKFDKALKALPMHIRLSFNPTQLEEQCHI
Consider B8, for which the Tm under setting [6] was 78 °C; the Tm under setting [7] turned out to be 91 °C; the Tm under setting [8] was 77.8 °C; the midpoint of thermal melting (Tm) (Bos taurus, pH 3, Thermal, DSC, phosphate 20 mM, reversible: yes) worked out at 77 °C. Moreover, the “heat capacity change of unfolding” value was determined as 1.33 kcal/mol/K under setting [6], 1.35 kcal/mol/K under setting [7] and 1.33 kcal/mol/K under setting [8]. For the same protein, the “unfolding enthalpy (van 't Hoff)” value was determined as 74.6 kcal/mol under setting [6] and 88.8 kcal/mol under setting [7]. Further, the “unfolding enthalpy (calorimetric)” value under setting [8] was 74.7 kcal/mol. The denaturant m value under setting [9] was determined as 0.9 kcal/mol/M. For the same protein, the “denaturant midpoint (higher = more stable)” value under setting [9] is 4 M. For the same protein, the unfolding free energy reads like this: under setting [9], 3.8 kcal/mol; (Bos taurus, pH 6.85, 25 °C, Urea, CD, Phosphate 0.01 M, chloride 0.2 M) 6.99 kcal/mol; (Bos taurus, pH 6.85, 25 °C, Urea, CD, Phosphate 0.01 M, citrate 0.2 M) 9.79 kcal/mol; (Bos taurus, pH 6.85, 25 °C, Urea, CD, Phosphate 0.01 M, phosphate 0.2 M) 9.18 kcal/mol; (Bos taurus, pH 6.85, 25 °C, Urea, CD, Phosphate 0.01 M, sulfate 0.2 M) 8.8 kcal/mol; (Bos taurus, pH 6.85, 25 °C, Urea, CD, Phosphate 0.01 M, tartrate 0.2 M) 7.58 kcal/mol. In addition, the unfolding free energy (Bos taurus, pH 7.1, 30 °C, GdnHCl, CD, phosphate 0.11 M, NaCl 0.04 M) turned out to be 11.2 kcal/mol.

B9: Cytidine deaminase wild type, P19079 (protein)
chain: MNRQELITEALKARDMAYAPYSKFQVGAALLTKDGKVYRGCNIENAAYSMCNCAERTALFKAVSEGDTEFQMLAVAADTPGPVSPCGACRQVISELCTKDVIVVLTNLQGQIKEMTVEELLPGAFSSEDLHDERKL
Consider B9, for which the unfolding free energy (Bacillus subtilis (strain 168), pH 7, 25 °C, GdnHCl, CD, potassium phosphate 20 mM, reversible: no) is 2.5 kcal/mol.
